Data reported in US20240327497A1.
Several values for one entry are separate records, joined by “and”; a condition that tells them apart may be missing. Identical values can stand only once.

Columns and labels:
[1] = target: canine FcRn (FcRn large subunit with canine beta-2-microglobulin) (canine); assay: SPR pH 5.5, SASA-Fc captured on BSA, FcRn 200 nM
[2] = target: canine FcRn (FcRn large subunit with canine beta-2-microglobulin) (canine); assay: SPR pH 5.5, SASA-Fc captured on BSA, FcRn 100-800 nM
[3] = target: canine FcRn (FcRn large subunit with canine beta-2-microglobulin) (canine); assay: SPR pH 6.0, SASA-Fc captured on BSA, FcRn 200 nM
[4] = target: canine FcRn (FcRn large subunit with canine beta-2-microglobulin) (canine); assay: SPR pH 6.0, SASA-Fc captured on BSA, FcRn 100-800 nM

| Binder | Kd [1] | koff [1] | kon [1] | Kd [2] | koff [2] | kon [2] | Kd [3] | kon [3] | Kd [4] | koff [4] | kon [4] | koff [3] |
| --- | --- | --- | --- | --- | --- | --- | --- | --- | --- | --- | --- | --- |
| canine IgGB Fc (CH2-CH3) A426Y with N-terminal SASA tag (Fc fusion, part only; not given: SASA tag, not shown: another chain or arm of the molecule; small tags and cut ends) Fc: APEMLGGPSVFIFPPKPKDTLLIARTPEVTCVVVDLDPEDPEVQISWFVDGKQMQTAKTQPREEQFNGTYRVVSVLPIGHQDWLKGKQFTCKVNNKALPSPIERTISKARGQAHQPSVYVLPPSREELSKNTVSLTCLIKDFFPPDIDVEWQSNGQQEPESKYRTTPPQLDEDGSYFLYSKLSVDKSRWQRGDTFICYVMHEALHNHYTQESLSHSPGK | 146 nM and 143 nM | 0.109 s⁻¹ and 0.112 s⁻¹ | 750000 M⁻¹ s⁻¹ and 785000 M⁻¹ s⁻¹ | 389 nM | 0.102 s⁻¹ | 262000 M⁻¹ s⁻¹ | – | – | – | – | – | – |
| canine IgGB Fc (CH2-CH3) A426H with N-terminal SASA tag (Fc fusion, part only; not given: SASA tag, not shown: another chain or arm of the molecule; small tags and cut ends) Fc: APEMLGGPSVFIFPPKPKDTLLIARTPEVTCVVVDLDPEDPEVQISWFVDGKQMQTAKTQPREEQFNGTYRVVSVLPIGHQDWLKGKQFTCKVNNKALPSPIERTISKARGQAHQPSVYVLPPSREELSKNTVSLTCLIKDFFPPDIDVEWQSNGQQEPESKYRTTPPQLDEDGSYFLYSKLSVDKSRWQRGDTFICHVMHEALHNHYTQESLSHSPGK | 160 nM and 153 nM | 0.135 s⁻¹ and 0.14 s⁻¹ | 843000 M⁻¹ s⁻¹ and 915000 M⁻¹ s⁻¹ | 343 nM | 0.106 s⁻¹ | 308000 M⁻¹ s⁻¹ | – | – | – | – | – | – |
| canine IgGB Fc (CH2-CH3) A426F with N-terminal SASA tag (Fc fusion, part only; not given: SASA tag, not shown: another chain or arm of the molecule; small tags and cut ends) Fc: APEMLGGPSVFIFPPKPKDTLLIARTPEVTCVVVDLDPEDPEVQISWFVDGKQMQTAKTQPREEQFNGTYRVVSVLPIGHQDWLKGKQFTCKVNNKALPSPIERTISKARGQAHQPSVYVLPPSREELSKNTVSLTCLIKDFFPPDIDVEWQSNGQQEPESKYRTTPPQLDEDGSYFLYSKLSVDKSRWQRGDTFICFVMHEALHNHYTQESLSHSPGK | 182 nM and 181 nM | 0.143 s⁻¹ and 0.147 s⁻¹ | 786000 M⁻¹ s⁻¹ and 811000 M⁻¹ s⁻¹ | 522 nM | 0.132 s⁻¹ | 253000 M⁻¹ s⁻¹ | – | – | – | – | – | – |
| canine IgGB Fc (CH2-CH3) D312P with N-terminal SASA tag (Fc fusion, part only; not given: SASA tag, not shown: another chain or arm of the molecule; small tags and cut ends) Fc: APEMLGGPSVFIFPPKPKDTLLIARTPEVTCVVVDLDPEDPEVQISWFVDGKQMQTAKTQPREEQFNGTYRVVSVLPIGHQPWLKGKQFTCKVNNKALPSPIERTISKARGQAHQPSVYVLPPSREELSKNTVSLTCLIKDFFPPDIDVEWQSNGQQEPESKYRTTPPQLDEDGSYFLYSKLSVDKSRWQRGDTFICAVMHEALHNHYTQESLSHSPGK | 291 nM and 439 nM | 0.0894 s⁻¹ and 0.11 s⁻¹ | 307000 M⁻¹ s⁻¹ and 251000 M⁻¹ s⁻¹ | – | – | – | – | – | – | – | – | – |
| canine IgGB Fc (CH2-CH3) T286Y with N-terminal SASA tag (Fc fusion, part only; not given: SASA tag, not shown: another chain or arm of the molecule; small tags and cut ends) Fc: APEMLGGPSVFIFPPKPKDTLLIARTPEVTCVVVDLDPEDPEVQISWFVDGKQMQYAKTQPREEQFNGTYRVVSVLPIGHQDWLKGKQFTCKVNNKALPSPIERTISKARGQAHQPSVYVLPPSREELSKNTVSLTCLIKDFFPPDIDVEWQSNGQQEPESKYRTTPPQLDEDGSYFLYSKLSVDKSRWQRGDTFICAVMHEALHNHYTQESLSHSPGK | – | – | – | – | – | – | 69.8 nM and 116 nM | 410000 M⁻¹ s⁻¹ and 1.11e+06 M⁻¹ s⁻¹ | 632 nM | 0.162 s⁻¹ | 256000 M⁻¹ s⁻¹ | – |
| canine IgGB Fc (CH2-CH3) T286F with N-terminal SASA tag (Fc fusion, part only; not given: SASA tag, not shown: another chain or arm of the molecule; small tags and cut ends) Fc: APEMLGGPSVFIFPPKPKDTLLIARTPEVTCVVVDLDPEDPEVQISWFVDGKQMQFAKTQPREEQFNGTYRVVSVLPIGHQDWLKGKQFTCKVNNKALPSPIERTISKARGQAHQPSVYVLPPSREELSKNTVSLTCLIKDFFPPDIDVEWQSNGQQEPESKYRTTPPQLDEDGSYFLYSKLSVDKSRWQRGDTFICAVMHEALHNHYTQESLSHSPGK | – | – | – | – | – | – | 157 nM and 185 nM | 336000 M⁻¹ s⁻¹ and 330000 M⁻¹ s⁻¹ | 616 nM | 0.19 s⁻¹ | 309000 M⁻¹ s⁻¹ | 0.0527 s⁻¹ and 0.061 s⁻¹ |
| canine IgGB Fc (CH2-CH3) T286L with N-terminal SASA tag (Fc fusion, part only; not given: SASA tag, not shown: another chain or arm of the molecule; small tags and cut ends) Fc: APEMLGGPSVFIFPPKPKDTLLIARTPEVTCVVVDLDPEDPEVQISWFVDGKQMQLAKTQPREEQFNGTYRVVSVLPIGHQDWLKGKQFTCKVNNKALPSPIERTISKARGQAHQPSVYVLPPSREELSKNTVSLTCLIKDFFPPDIDVEWQSNGQQEPESKYRTTPPQLDEDGSYFLYSKLSVDKSRWQRGDTFICAVMHEALHNHYTQESLSHSPGK | – | – | – | – | – | – | 174 nM and 208 nM | 324000 M⁻¹ s⁻¹ and 496000 M⁻¹ s⁻¹ | 777 nM | 0.253 s⁻¹ | 325000 M⁻¹ s⁻¹ | 0.0565 s⁻¹ and 0.103 s⁻¹ |
| canine IgGB Fc (CH2-CH3) T286W with N-terminal SASA tag (Fc fusion, part only; not given: SASA tag, not shown: another chain or arm of the molecule; small tags and cut ends) Fc: APEMLGGPSVFIFPPKPKDTLLIARTPEVTCVVVDLDPEDPEVQISWFVDGKQMQWAKTQPREEQFNGTYRVVSVLPIGHQDWLKGKQFTCKVNNKALPSPIERTISKARGQAHQPSVYVLPPSREELSKNTVSLTCLIKDFFPPDIDVEWQSNGQQEPESKYRTTPPQLDEDGSYFLYSKLSVDKSRWQRGDTFICAVMHEALHNHYTQESLSHSPGK | – | – | – | – | – | – | 127 nM and 118 nM | 774000 M⁻¹ s⁻¹ and 945000 M⁻¹ s⁻¹ | 565 nM | 0.195 s⁻¹ | 345000 M⁻¹ s⁻¹ | 0.0982 s⁻¹ and 0.112 s⁻¹ |
| canine IgGB Fc (CH2-CH3) Y436H with N-terminal SASA tag (Fc fusion, part only; not given: SASA tag, not shown: another chain or arm of the molecule; small tags and cut ends) Fc: APEMLGGPSVFIFPPKPKDTLLIARTPEVTCVVVDLDPEDPEVQISWFVDGKQMQTAKTQPREEQFNGTYRVVSVLPIGHQDWLKGKQFTCKVNNKALPSPIERTISKARGQAHQPSVYVLPPSREELSKNTVSLTCLIKDFFPPDIDVEWQSNGQQEPESKYRTTPPQLDEDGSYFLYSKLSVDKSRWQRGDTFICAVMHEALHNHHTQESLSHSPGK | – | – | – | – | – | – | 447 nM and 532 nM | 300000 M⁻¹ s⁻¹ and 265000 M⁻¹ s⁻¹ | 386 nM | 0.145 s⁻¹ | 375000 M⁻¹ s⁻¹ | 0.134 s⁻¹ and 0.141 s⁻¹ |
